The values that follow come from publication PMC9300613.

Assay [1] deals with bovine brain αβ-tubulin (taxol-stabilised microtubules, dolastatin-induced rings or DARPin-capped free dimer for biochemical assays) (bovine) (UniProt Q6B856).
The target is the same in assay [2]. As to the kind of experiment: co-sedimentation; 1 μM kinesin with 0-10 μM taxol-stabilised microtubules, BRB80 + 100 mM KCl, 2 mM AMP-PNP, 20 μM taxol, 20 min at 25 °C; pellet and supernatant by SDS-PAGE; Kd from a quadratic fit.

On to “HsKHC-MDN_(L2-CaKip3) (HsKHC-MDN with loop-2 IASK, I41-K44, replaced by CaKip3 loop-2 F116-H144) (from UniProt P33176;A0A1D8PKA4) (domain or fragment)”, for which, in assay [1], the microtubule-gliding speed of HsKHC-MDN (L2-CaKip3) relative to HsKHC-MDN (taxol-stabilised microtubules) amounted to 2 fold and the microtubule-stimulated ATP turnover at steady state, relative to HsKHC-MDN was 2 fold. The fold greater affinity than HsKHC-MDN in assay [2] is 7 fold.
